The values that follow come from article PMC8217354.

This data set deals with T1, N-SpTad2 (Schizosaccharomyces pombe, UniProt O94642 1-202).
T1 sequence: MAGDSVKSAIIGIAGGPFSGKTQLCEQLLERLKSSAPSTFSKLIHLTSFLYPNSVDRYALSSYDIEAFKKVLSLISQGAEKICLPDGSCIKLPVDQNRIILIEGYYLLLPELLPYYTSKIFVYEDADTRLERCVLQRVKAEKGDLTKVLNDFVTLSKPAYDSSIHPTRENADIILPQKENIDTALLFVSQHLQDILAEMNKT
As to the kind of experiment: EMSA. (In EMSA bound probe runs differently from free probe, usually more slowly.)

B1: tRNAAla (structured_RNA)
RNA: GGGCGUGUGGCGUAGUCGGUAGCGCGCUCCCUUAGCAUGGGAGAGGUCUCCGGUUCGAUUCCGGACUCGUCCACC
On to B1, for which the binding result was “no binding”.
